# Target: SARS-CoV-2 nucleocapsid (N), wild type (SARS-CoV-2, UniProt P0DTC9 1-419)
# Assay: co-condensation microscopy; 10 uM N, maximal at 5 uM RNA, reentrant
# Details: protein: recombinant; tags: N-terminal His6 cleaved by TEV; Cys inserted before residue 1 in the dye-labelled fraction; chain copies: 2; label: 6-FAM (fluorescein)
binder,measurement,value
AAGCAGCUAAGAGCGAA (ssRNA) [17-mer RNA],binding result,binds

# Reference: publication PMC7820290
